How the values were obtained:
[1] = target: T1, TNFαR (the TNFα binding part of etanercept), P20333
T1 chain: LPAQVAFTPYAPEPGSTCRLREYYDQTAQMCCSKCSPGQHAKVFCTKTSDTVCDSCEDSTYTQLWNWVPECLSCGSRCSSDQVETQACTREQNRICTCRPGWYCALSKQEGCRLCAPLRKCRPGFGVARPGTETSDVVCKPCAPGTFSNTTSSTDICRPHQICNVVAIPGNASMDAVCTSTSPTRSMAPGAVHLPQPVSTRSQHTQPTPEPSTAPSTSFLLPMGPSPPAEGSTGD

[2] = target: Asialylated etanercept (etanercept treated with sialidase)
[3] = target: Etanercept (native, fully glycosylated)

B1: LS (O-glycoprotein-specific endoprotease encoded by the Amuc1119 gene of Akkermansia muciniphila, with N-terminal Met and C-terminal GSG-His6) (protein)
chain: MEVTVPDALKDRIALKKTARQLNIVYFLGSDTEPVPDYERRLSELLLYLQQFYGKEMQRHGYGARSFGLDIKSPGRVNIIEYKAKNPAAHYPYENGGGWKAAQELDEFFKAHPDRKKSQHTLIIMPTWNDEKNGPDNPGGVPFYGMGRNCFALDYPAFDIKHLGQKTREGRLLTKWYGGMAHELGHGLNLPHNHQTASDGKKYGTALMGSGNYTFGTSPTFLTPASCALLDACEVFSVTPSQQFYEGKPEVEVGDVAISFKGDQILVSGNYKSPQTVKALNVYIQDPPYAVNQDYDAVSFSRRLGKKSGKFSMKIDKKELEGLNNNEFRISLMFILANGLHMQKHFTFHWDALQDYRDGSKSGSGHHHHHH
For B1, the “hydrolysis of substrate, SDS-PAGE” value [1] was “LS had activity in all samples except those treated with O-glycosidase”, the “hydrolysis and release from double-mutant resin, SDS-PAGE” value (Asialylated Abatacept) was “could be hydrolyzed and eluted from the double-mutant-resin by LS in 6 h but had a slightly more complete elution after 24 h” and the “hydrolysis and release from double-mutant resin, SDS-PAGE” value [2] was “could be hydrolyzed and eluted from the double-mutant-resin by LS in 6 h but had a slightly more complete elution after 24 h”. For the same protein, the “hydrolysis of substrate, SDS-PAGE” value [2] was “LS was able to hydrolyze etanercept in the presence of sialidase” and the “hydrolysis of substrate, SDS-PAGE” value [3] was “full hydrolysis after overnight incubation”.
